{"source": "patent US6288037A", "about": "“Substrates and inhibitors for cysteine protease ICH-1” (BASF Aktiengesellschaft, priority 1996, dated 2001)", "proteins": {"B1": {"name": "N-His Ich-1 (Homo sapiens) (protein)", "chain 1": "YQTHFQLAYRLQSRPRGLALVLSNVHFTGEKELEFRSGGDVDHSTLVTLFKLLGYDVHVLCDQTAQEMQEKLQNFAQLPAHRVTDSCIVALLSHGVEGAIYGVDGKLLQLQEVFQLFDNANCPSLQNKPKMFFIQACRGDETDRGVDQQD", "chain 2": "GKNHAGSPGCEESDAGKEKLPKMRLPTRSDMICGYACLKGTAAMRNTKRGSWYIEALAQVFSERACDMHVADMLVKVNALIKDREGYAPGTEFHRCKEMSEYCSTLCRHLYLFPGHPPT", "notes": "contains Ich-1 amino acid residues 167-435, with an initiator and polyhistidine tag fused to the amino terminus; initiator (Met) + polyhistidine tag (N); made in house"}}, "substrate": "CC(=O)N[C@H](C(=O)N[C@@H](CC(=O)O)C(=O)N[C@H](C(=O)N[C@@H](C)C(=O)N[C@@H](CC(=O)O)C(=O)Nc1ccc([N+](=O)[O-])cc1)C(C)C)C(C)C", "assay": "In vitro proteolysis assay with chromogenic para-nitroaniline-labeled peptide substrate (absorbance 405 nm)", "format": "biochemical, Human", "conditions": "other: pNA substrate cleaved by N-His Ich-1, 30° C.", "text": "To identify peptide substrates for Ich-1, candidate peptides were used in in vitro proteolysis assays with recombinant Ich-1 protein. Human Ich-1 enzyme (the nucleotide and amino acid sequences for which are disclosed in Wang, L., et al. (1994) Cell 78:739-750) was expressed recombinantly with an N-terminal polyhistidine tag by methods described in Kamens, J., et al. (1995) J. Biol. Chem. 270:15250-15256. The resulting enzyme, called N-His Ich-1, contains Ich-1 amino acid residues 167-435, with an initiator and polyhistidine tag fused to the amino terminus. […]\nA peptidic aldehyde inhibitor of Ich-1 was designed based upon the optimal peptide substrate (Peptide 43) described in Example 3. […] The ability of this peptidic aldehyde inhibitor to inhibit N-His Ich-1 activity was determined in in vitro proteolysis assays using a chromogenic para-nitroaniline-labeled peptide substrate. […]\nTo perform the proteolysis assay, N-His Ich-1 was preincubated for 30 minutes at 30° C. in 160 μl of a reaction buffer containing 100 mM sodium acetate (pH 6.2), 20% (v/v) glycerol, 5 mM DTT, 0.5 mM EDTA, […]. […] The incubation of N-His Ich-1 with the peptide substrate at 30° C. was continued, and the catalytic hydrolysis of peptide substrate was monitored by the change in absorbance of the samples at 405 nm due to release of pNA as a function of time. […]"}
{"protein": "B1", "values": [{"measurement": "Km", "result": 42, "unit": "µM"}]}
